Test results reported in patent publication US20250019437A1.

Columns and labels:
[1] = molecular target: T1, human TREM2 (triggering receptor expressed on myeloid cells 2) (human) (UniProt Q9NZC2); test: 1st screen, 10 nM Ab
T1 sequence (looked up): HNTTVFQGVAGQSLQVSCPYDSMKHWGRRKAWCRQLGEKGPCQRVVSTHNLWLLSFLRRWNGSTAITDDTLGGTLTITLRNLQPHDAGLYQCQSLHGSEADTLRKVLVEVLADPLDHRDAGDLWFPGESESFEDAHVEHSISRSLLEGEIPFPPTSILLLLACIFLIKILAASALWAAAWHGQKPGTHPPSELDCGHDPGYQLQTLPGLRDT

[2] = molecular target: T1, human TREM2 (triggering receptor expressed on myeloid cells 2) (human); test: 2nd screen, 10 nM Ab
[3] = molecular target: T1, human TREM2 (triggering receptor expressed on myeloid cells 2) (human); test: 2nd screen, 2 nM Ab

Row | Binder | Binding Signal (fold over 6E7 parental antibody) [1] | Binding Signal (fold over 6E7 parental antibody) [2] | Binding Signal (fold over 6E7 parental antibody) [3]
1 | 6E7 antibody affinity modulation variant V41 (antibody, V domains shown) VH: EVQLVQSGAEVKKPGESLKISCKGSGYSFTSYWIAWVRQMPGKGLEWMGTIYPGDSDTRYSPSFQGQVTISADKSISTAYLQWSSLKASDTAMYFCARQRTFYYDSSDYFDYWGQGTLVTVSS VL: DIQMTQSPSSVSASVGDRVTITCRASQGISSWLAWYQQKPGKAPKLLIYAASSLQNGVPSRFSGSGSGTDFTLTISSLQPEDFATYFCQQADSFPRTFGQGTKLEIK | 1.74 fold | 1.72 fold | 0.58 fold
2 | 6E7 antibody affinity modulation variant V63 (antibody, V domains shown) VH: EVQLVQSGAEVKKPGESLKISCKGSGYSFRSYWIAWVRQMPGKGLEWMGIIYPGDSDTRYSPSFQGQVTISADKSISTAYLQWSSLKASDTAMYFCARSRTFYYDSSDYFDYWGQGTLVTVSS VL: DIQMTQSPSSVSASVGDRVTITCRASQGISSWLAWYQQKPGKAPKLLIYAASSLQRGVPSRFSGSGSGTDFTLTISSLQPEDFATYFCQQADRFPRTFGQGTKLEIK | 3.76 fold | 3.71 fold | 4.91 fold
3 | 6E7 antibody affinity modulation variant V62 (antibody, V domains shown) VH: EVQLVQSGAEVKKPGESLKISCKGSGYSFGSYWIAWVRQMPGKGLEWMGIIYPGDSDTRYAPSFQGQVTISADKSISTAYLQWSSLKASDTAMYFCARQRTFYYDSSGYFDYWGQGTLVTVSS VL: DIQMTQSPSSVSASVGDRVTITCRASQGISSWLAWYQQKPGKAPKLLIYAASSLQRGVPSRFSGSGSGTDFTLTISSLQPEDFATYFCGQADSFPRTFGQGTKLEIK | 2.49 fold | 2.89 fold | 1.87 fold
4 | 6E7 antibody affinity modulation variant V49 (antibody, V domains shown) VH: EVQLVQSGAEVKKPGESLKISCKGSGYSFNSYWIAWVRQMPGKGLEWMGTIYPGDSDTRLSPSFQGQVTISADKSISTAYLQWSSLKASDTAMYFCARSRTFYYDSSDYFDYWGQGTLVTVSS VL: DIQMTQSPSSVSASVGDRVTITCRASQGISSWLAWYQQKPGKAPKLLIYAASSRQNGVPSRFSGSGSGTDFTLTISSLQPEDFATYFCQQADSYPRTFGQGTKLEIK | 6.51 fold | 6.58 fold | 5.02 fold
5 | 6E7 antibody affinity modulation variant V65 (antibody, V domains shown) VH: EVQLVQSGAEVKKPGESLKISCKGSGYSFTSYWIAWVRQMPGKGLEWMGIIYPGDSDTRYSPSFQGQVTISADKSISTAYLQWSSLKASDTAMYFCARSRTFYYDSSDYFDYWGQGTLVTVSS VL: DIQMTQSPSSVSASVGDRVTITCRASQGISSWLAWYQQKPGKAPKLLIYAASSLQNGVPSRFSGSGSGTDFTLTISSLQPEDFATYFCQQADSFPRTFGQGTKLEIK | 2.05 fold | 2.75 fold | 1.29 fold
6 | 6E7 antibody affinity modulation variant V53 (antibody, V domains shown) VH: EVQLVQSGAEVKKPGESLKISCKGSGYSFTSYWIAWVRQMPGKGLEWMGIIYPGDSDTRYSPHFQGQVTISADKSISTAYLQWSSLKASDTAMYFCARQRTFYYDSSDYFDYWGQGTLVTVSS VL: DIQMTQSPSSVSASVGDRVTITCRASQGISSWLAWYQQKPGKAPKLLIYAASSLQNGVPSRFSGSGSGTDFTLTISSLQPEDFATYFCQQADSFPRTFGQGTKLEIK | 1.25 fold | 1.17 fold | 0.66 fold
7 | 6E7 antibody affinity modulation variant V60 (antibody, V domains shown) VH: EVQLVQSGAEVKKPGESLKISCKGSGYHFTSYWIAWVRQMPGKGLEWMGIIYPGDSDVRYSPSFQGQVTISADKSISTAYLQWSSLKASDTAMYFCARQRTFYYDSSDYSDYWGQGTLVTVSS VL: DIQMTQSPSSVSASVGDRVTITCRASQGISSWLAWYQQKPGKAPKLLIYAASSLQRGVPSRFSGSGSGTDFTLTISSLQPEDFATYFCGQADSFPRTFGQGTKLEIK | 3.26 fold | 3.63 fold | 3.35 fold
8 | 6E7 antibody affinity modulation variant V50 (antibody, V domains shown) VH: EVQLVQSGAEVKKPGESLKISCKGSGYSFGSYWIAWVRQMPGKGLEWMGVIYPGDSDTRYSPSFQGQVTISADKSISTAYLQWSSLKASDTAMYFCARQRTFYYDSSDYLDYWGQGTLVTVSS VL: DIQMTQSPSSVSASVGDRVTITCRASQGISSWLAWYQQKPGKAPKLLIYAASSRQNGVPSRFSGSGSGTDFTLTISSLQPEDFATYFCQQADSLPRTFGQGTKLEIK | 4.1 fold | 4.16 fold | 3.39 fold
9 | 6E7 antibody affinity modulation variant V51 (antibody, V domains shown) VH: EVQLVQSGAEVKKPGESLKISCKGSGYSFTSYWIAWVRQMPGKGLEWMGIIYPGDSDVRYSPSFQGQVTISADKSISTAYLQWSSLKASDTAMYFCARGRTFYYDSSDYFDNWGQGTLVTVSS VL: DIQMTQSPSSVSASVGDRVTITCRASQGISSWLAWYQQKPGKAPKLLIYAASSRQNGVPSRFSGSGSGTDFTLTISSLQPEDFATYFCQQADSFPRTFGQGTKLEIK | 2.81 fold | 3.18 fold | 1.83 fold
10 | 6E7 antibody affinity modulation variant V48 (antibody, V domains shown) VH: EVQLVQSGAEVKKPGESLKISCKGSGYSFGSYWIAWVRQMPGKGLEWMGIIYPGDSDVRYSPSFQGQVTISADKSISTAYLQWSSLKASDTAMYFCARMRTFYYDSSDYFDYWGQGTLVTVSS VL: DIQMTQSPSSVSASVGDRVTITCRASQGISSWLAWYQQKPGKAPKLLIYAASSLQTGVPSRFSGSGSGTDFTLTISSLQPEDFATYFCQQADSLPRTFGQGTKLEIK | 2.42 fold | 2.54 fold | 2.3 fold
11 | 6E7 antibody affinity modulation variant V64 (antibody, V domains shown) VH: EVQLVQSGAEVKKPGESLKISCKGSGYSFQSYWIAWVRQMPGKGLEWMGIIYPGDSDTRYSPSFQGQVTISADKSISTAYLQWSSLKASDTAMYFCARGRTFYYDSSDYFDYWGQGTLVTVSS VL: DIQMTQSPSSVSASVGDRVTITCRASQGISSWLAWYQQKPGKAPKLLIYAASSLANGVPSRFSGSGSGTDFTLTISSLQPEDFATYFCQQADSYPRTFGQGTKLEIK | 5.41 fold | 5.48 fold | 4.88 fold
12 | 6E7 antibody affinity modulation variant V1 (antibody, V domains shown) VH: EVQLVQSGAEVKKPGESLKISCKGSGYSFTSSWIAWVRQMPGKGLEWMGIIYPGDSDTRYSPSFQGQVTISADKSISTAYLQWSSLKASDTAMYFCARSRTFYYDSSDYFDYWGQGTLVTVSS VL: DIQMTQSPSSVSASVGDRVTITCRASQGISSWLAWYQQKPGKAPKLLIYAASSLTNGVPSRFSGSGSGTDFTLTISSLQPEDFATYFCQQADSYPRTFGQGTKLEIK | 1.68 fold | 1.92 fold | 1.29 fold
13 | 6E7 antibody affinity modulation variant V61 (antibody, V domains shown) VH: EVQLVQSGAEVKKPGESLKISCKGSGYSFSSYWIAWVRQMPGKGLEWMGIIYPGDSDTRYNPSFQGQVTISADKSISTAYLQWSSLKASDTAMYFCARGRTFYYDSSDYFDYWGQGTLVTVSS VL: DIQMTQSPSSVSASVGDRVTITCRASQGISSWLAWYQQKPGKAPKLLIYAASSLVNGVPSRFSGSGSGTDFTLTISSLQPEDFATYFCQQADSLPRTFGQGTKLEIK | 5.08 fold | 5.22 fold | 3.63 fold
